Tests used:
[1] = target: CD3 molecules of the CD3/TCR complex on mouse T cells (mouse) (UniProt A2KF29); experiment: confocal fluorescence microscopy, NBD-peptide and labelled anti-CD3 antibody on mouse T cells
[2] = target: TLR2 TMD peptide labelled with Rho (TLR2-Rho); experiment: FRET, gp41 TMD-NBD constant at 0.4 µM and TLR2-Rho added at 0.025-0.8 µM, 100 µM LUVs

gp41 TMD conjugated to NBD (gp41 transmembrane domain peptide, NBD-labelled)
co-localization percentage [1]: 58.8% | percent of energy transfer (FRET) [2]: > 60%

Reference: patent publication US20120321668A1
